In US20130115676:

How the values were obtained:
Experiment in all cases: cleavage_in_vitro
BsmBI = conditions: NEB3, 10 mM MgCl2, 55 C
[1] = biological target: T1, BamHI (Bacillus amyloliquefaciens) (UniProt P23940); conditions: NEB3, 10 mM MgCl2, 37 C
T1 sequence: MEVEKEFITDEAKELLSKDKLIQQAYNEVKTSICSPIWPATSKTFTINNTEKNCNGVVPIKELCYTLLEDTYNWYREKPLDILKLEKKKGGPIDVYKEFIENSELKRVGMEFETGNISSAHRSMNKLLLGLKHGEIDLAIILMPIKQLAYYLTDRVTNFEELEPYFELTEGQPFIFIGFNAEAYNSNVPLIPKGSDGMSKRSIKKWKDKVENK

[2] = biological target: T2, HpaI (Haemophilus parainfluenzae) (UniProt P29537); conditions: NEB4, 10 mM Mg acetate, 37 C
T2 sequence: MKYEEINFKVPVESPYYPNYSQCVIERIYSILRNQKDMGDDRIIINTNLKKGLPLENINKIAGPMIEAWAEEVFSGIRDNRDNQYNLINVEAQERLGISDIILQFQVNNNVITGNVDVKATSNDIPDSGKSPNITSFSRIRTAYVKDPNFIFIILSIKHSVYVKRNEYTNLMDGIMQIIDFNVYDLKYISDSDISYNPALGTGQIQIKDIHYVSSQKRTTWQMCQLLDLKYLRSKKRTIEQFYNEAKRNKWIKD

[3] = biological target: T3, PstI-HF D91A (Providencia stuartii 164) (UniProt P00640); conditions: NEB4, 10 mM Mg acetate, 37 C
T3 sequence: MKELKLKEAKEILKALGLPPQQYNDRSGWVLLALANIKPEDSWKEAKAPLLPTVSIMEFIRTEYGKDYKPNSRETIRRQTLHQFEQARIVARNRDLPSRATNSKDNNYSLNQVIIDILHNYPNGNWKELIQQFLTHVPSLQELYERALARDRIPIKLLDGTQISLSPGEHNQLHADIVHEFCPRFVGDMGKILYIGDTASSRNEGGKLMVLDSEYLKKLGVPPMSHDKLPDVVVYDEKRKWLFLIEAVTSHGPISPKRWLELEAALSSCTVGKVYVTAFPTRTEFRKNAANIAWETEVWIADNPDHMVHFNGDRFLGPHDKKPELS

[4] = biological target: T4, ScaI-HF H193A/S201F (Streptomyces caespitosus) (UniProt O52691); conditions: NEB4, 10 mM Mg acetate, 37 C
T4 sequence: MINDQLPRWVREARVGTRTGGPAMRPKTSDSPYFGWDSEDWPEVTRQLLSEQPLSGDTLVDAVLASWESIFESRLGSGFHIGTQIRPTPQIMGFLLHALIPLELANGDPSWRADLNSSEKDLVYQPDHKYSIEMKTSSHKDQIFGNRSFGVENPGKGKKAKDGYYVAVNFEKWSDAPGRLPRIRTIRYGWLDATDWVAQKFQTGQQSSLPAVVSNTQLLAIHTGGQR

[5] = tested on: T5, BspQI (Bacillus sphaericus); conditions: NEB3, 10 mM MgCl2, 50 C
T5 sequence: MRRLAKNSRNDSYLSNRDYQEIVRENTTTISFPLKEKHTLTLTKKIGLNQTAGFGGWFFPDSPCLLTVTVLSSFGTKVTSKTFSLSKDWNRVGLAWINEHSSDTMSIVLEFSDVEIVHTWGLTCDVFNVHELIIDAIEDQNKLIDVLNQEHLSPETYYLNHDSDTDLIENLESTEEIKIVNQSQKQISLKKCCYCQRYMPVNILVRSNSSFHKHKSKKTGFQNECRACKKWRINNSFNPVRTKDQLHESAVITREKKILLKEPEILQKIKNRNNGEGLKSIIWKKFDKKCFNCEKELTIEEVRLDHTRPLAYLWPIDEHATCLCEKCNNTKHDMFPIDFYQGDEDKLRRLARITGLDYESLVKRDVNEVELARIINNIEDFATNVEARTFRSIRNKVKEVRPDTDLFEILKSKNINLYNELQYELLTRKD

[6] = biological target: EcoRI-HF K62E (Escherichia coli RY13) (UniProt P00642); conditions: NEB4, 10 mM Mg acetate, 37 C
[7] = tested on: T6, SapI (Saccharopolyspora sp.); conditions: NEB4, 10 mM Mg acetate, 37 C
T6 sequence: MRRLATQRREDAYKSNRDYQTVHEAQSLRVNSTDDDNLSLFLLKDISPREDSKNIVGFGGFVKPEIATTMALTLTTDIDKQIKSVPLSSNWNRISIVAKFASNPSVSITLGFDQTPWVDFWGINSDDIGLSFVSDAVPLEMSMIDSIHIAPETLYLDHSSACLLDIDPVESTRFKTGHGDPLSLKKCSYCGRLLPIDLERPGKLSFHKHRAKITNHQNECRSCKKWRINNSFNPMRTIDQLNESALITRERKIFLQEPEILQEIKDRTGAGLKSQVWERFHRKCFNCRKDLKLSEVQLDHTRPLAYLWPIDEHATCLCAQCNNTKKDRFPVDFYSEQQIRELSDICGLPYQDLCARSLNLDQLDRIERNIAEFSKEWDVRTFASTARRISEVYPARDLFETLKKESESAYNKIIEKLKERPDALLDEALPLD

[8] = tested on: T7, SphI (Streptomyces phaeochromogenes); conditions: NEB1, 10 mM MgCl2, 37 C
T7 sequence: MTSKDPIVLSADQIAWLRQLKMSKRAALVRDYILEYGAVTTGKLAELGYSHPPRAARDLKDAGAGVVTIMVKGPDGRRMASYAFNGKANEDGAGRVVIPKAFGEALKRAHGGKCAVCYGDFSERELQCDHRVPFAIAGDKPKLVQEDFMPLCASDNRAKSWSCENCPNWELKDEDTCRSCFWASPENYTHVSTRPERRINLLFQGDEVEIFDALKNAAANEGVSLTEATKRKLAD

BstXI = conditions: NEB4, 10 mM Mg acetate, 55 C
BsmBI-HF N185Y/R232A = conditions: NEB4, 10 mM Mg acetate, 55 C; listed as BsmBI
[9] = tested on: T8, SspI (Sphaerotilus species); conditions: NEB1, 10 mM MgCl2, 37 C
T8 sequence: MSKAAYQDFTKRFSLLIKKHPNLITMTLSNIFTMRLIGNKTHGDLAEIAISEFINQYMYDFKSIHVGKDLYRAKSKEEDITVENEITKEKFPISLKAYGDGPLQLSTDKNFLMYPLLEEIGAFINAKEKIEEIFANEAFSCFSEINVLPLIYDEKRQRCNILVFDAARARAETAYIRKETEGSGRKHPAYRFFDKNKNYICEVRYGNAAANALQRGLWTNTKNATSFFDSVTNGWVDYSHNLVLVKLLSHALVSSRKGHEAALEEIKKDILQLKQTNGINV

Substance lambda DNA has an activity (fidelity index) (BsmBI) of 120, an activity (fidelity index) [1] of 32 and an activity (fidelity index) [2] of 16. For the same substance, the activity (fidelity index) [3] was 4000, the activity (fidelity index) [4] was 1000 and the activity (fidelity index) [5] was 32. It also gave an activity (fidelity index) [6] of 16000, an activity (fidelity index) [7] of 16 and an activity (fidelity index) [8] of 64. For the same substance, the activity (fidelity index) (BstXI) was 4, the activity (fidelity index) (BsmBI-HF N185Y/R232A) was > 500 and the activity (fidelity index) [9] was 64.
